The target of one series is T1, OXA-830 (Aeromonas simiae, UniProt A0A5K1KBV9).
T1 construct: gene blaOXA; predicted signal peptide cleavage 22/23
The series is described as follows: inhibition of benzylpenicillin hydrolysis, UV-VIS spectrophotometry. The series is classed as biochemical.

Series [1] has as its system CC(C)(O/N=C(\C(=O)N[C@@H]1C(=O)N2C(C(=O)[O-])=C(C[n+]3ccccc3)CS[C@H]12)c1csc(N)n1)C(=O)O. The series is described as follows: initial hydrolysis rates, UV-VIS spectrophotometry, Michaelis-Menten fit. Type of series: biochemical, Aeromonas simiae. The settings on record: 10 mM phosphate buffer pH 7.0, 30°C. The text has this:
(§1) initial hydrolysis rates, UV-VIS spectrophotometry, Michaelis-Menten fit on OXA-830

In series [2] the test system is CC1(C)S[C@@H]2[C@H](NC(=O)Cc3ccccc3)C(=O)N2[C@H]1C(=O)O. Described as above. Type of series: biochemical, Aeromonas simiae. The settings on record: 10 mM phosphate buffer pH 7.0, 30°C.
From the text: as §1

The subject of series [3] is CC1(C)S[C@@H]2[C@H](NC(=O)[C@H](C(=O)O)c3ccsc3)C(=O)N2[C@H]1C(=O)O. The series is described as above. Type of series: biochemical, Aeromonas simiae. The following applies: 10 mM phosphate buffer pH 7.0, 30°C.
From the text: as §1

Series [4] concerns CC1(C)S[C@@H]2[C@H](NC(=O)[C@H](N)c3ccccc3)C(=O)N2[C@H]1C(=O)O. The description is as above. Type of series: biochemical, Aeromonas simiae. The settings on record: 10 mM phosphate buffer pH 7.0, 30°C.
From the text: as §1

For series [5], the system named is CCN1CCN(C(=O)N[C@@H](C(=O)N[C@@H]2C(=O)N3[C@@H]2SC(C)(C)[C@@H]3C(=O)O)c2ccccc2)C(=O)C1=O. The description is as above. The following applies: 10 mM phosphate buffer pH 7.0, 30°C. Type of series: biochemical, Aeromonas simiae.
From the text: as §1

The test system of series [6] is CO[C@@]1(NC(=O)Cc2cccs2)C(=O)N2C(C(=O)O)=C(COC(N)=O)CS[C@@H]21. The description is as above. The series is classed as biochemical, Aeromonas simiae. The following applies: 10 mM phosphate buffer pH 7.0, 30°C.
From the text: as §1

The subject of series [7] is Cc1nnc(SCC2=C(C(=O)O)N3C(=O)[C@@H](NC(=O)Cn4cnnn4)[C@H]3SC2)s1. Described as above. The series is classed as biochemical, Aeromonas simiae. The following applies: 10 mM phosphate buffer pH 7.0, 30°C.
From the text: as §1

Series [8] concerns Cc1onc(-c2ccccc2)c1C(=O)N[C@@H]1C(=O)N2[C@@H]1SC(C)(C)[C@@H]2C(=O)O. The series is described as above. The following applies: 10 mM phosphate buffer pH 7.0, 30°C. Type of series: biochemical, Aeromonas simiae.
From the text: as §1

Series [9] relates to Cc1onc(-c2ccccc2Cl)c1C(=O)N[C@@H]1C(=O)N2[C@@H]1SC(C)(C)[C@@H]2C(=O)O. Described as above. Type of series: biochemical, Aeromonas simiae. The settings on record: 10 mM phosphate buffer pH 7.0, 30°C.
From the text: as §1

T1 sequence (A0A5K1KBV9 entry or part of it): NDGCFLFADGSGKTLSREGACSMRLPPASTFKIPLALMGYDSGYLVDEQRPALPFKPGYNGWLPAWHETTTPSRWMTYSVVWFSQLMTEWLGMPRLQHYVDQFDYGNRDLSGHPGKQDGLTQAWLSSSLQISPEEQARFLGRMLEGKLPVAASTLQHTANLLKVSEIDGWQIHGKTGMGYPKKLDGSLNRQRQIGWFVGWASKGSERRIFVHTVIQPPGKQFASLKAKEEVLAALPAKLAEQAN

`C[C@]1(Cn2ccnn2)[C@H](C(=O)O)N2C(=O)C[C@H]2S1(=O)=O` [tazobactam] registered an IC50 at OXA-830 of 70 ± 20 nM.
For OXA-830 (Aeromonas simiae), the Km in series [1] is 61 µM; in series [2] it was 540 µM; in [3] it was 208 µM; in series [4] it was 188 µM; in series [5], 233 µM; in series [6] it was 76 µM. The Km in series [7] was determined as 975 µM; in series [8], 722 µM; in [9] it was 737 µM. Also, the turnover number (kcat) in series [1] was 2.04 s⁻¹; in series [2] it was 527 s⁻¹; in [3], 227 s⁻¹; in [4] it was 444 s⁻¹; in series [5], 413 s⁻¹; in series [6], 2.79 s⁻¹. The kcat came out at 715 s⁻¹ in [7], 1240 s⁻¹ in series [8] and 1030 s⁻¹ in series [9]. Moreover, the kcat/Km is 33000 M⁻¹ s⁻¹ in series [1]; 980000 M⁻¹ s⁻¹ in series [2]; 1.09e+06 M⁻¹ s⁻¹ in series [3]; 2.36e+06 M⁻¹ s⁻¹ in [4]; 1.77e+06 M⁻¹ s⁻¹ in [5]; 37000 M⁻¹ s⁻¹ in [6]. Further, the kcat/Km in series [7] was found to be 730000 M⁻¹ s⁻¹; in series [8], 1.72e+06 M⁻¹ s⁻¹; in series [9] it was 1.4e+06 M⁻¹ s⁻¹.
In the case of `CC1(C)[C@H](C(=O)O)N2C(=O)C[C@H]2S1(=O)=O` [sulbactam], the IC50 against OXA-830 is 50 ± 10 nM.
The same measure, in the same setting: the value for `O=C(O)[C@H]1/C(=C/CO)O[C@@H]2CC(=O)N21` [clavulanic acid] was 260 ± 20 nM.

The IC50 is the concentration at which inhibition is half-maximal. Low readings indicate inhibition by little substance, high ones a need for much substance. One may read the Km as the concentration of substrate that gives half-maximal velocity. A word on the kcat: it is the maximal rate divided by the concentration of active sites. For orientation: kcat/Km means the turnover number divided by the Michaelis constant.

For the origin of these results see publication PMC6902050, “OXA-830, a Novel Chromosomally Encoded Extended-Spectrum Class D β-Lactamase in Aeromonas simiae” (Frontiers in Microbiology, 2019).
